Data published in the nanobody polyreactivity screen of Harvey et al. (2022).

Experiment: yeast display, Sf9 membrane polyspecificity reagent, FACS + sequencing; frameworks hold sequencing errors
Outline: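 Polyreactivity labels are assigned by the sorting gate from which each nanobody was recovered. The gates were low and high (top ~1%), set on anti-HA fluorescence for expression and streptavidin fluorescence for reagent binding. Before sorting, galactose-induced (36–48 hours) yeast display cells were stained for 1 hour at 4 °C with 10% biotinylated, detergent-solubilized Sf9 membrane reagent.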

Sequence	polyreactivity (PSR sort gate)
QVQLVESGGGLVQAGGSLRLSCAASGFTSYRYAMGWYRQAPGKERELVAAISSSGRTDYADSVKGRFTISRDNAKNSVYLQMNSLKPEDTAVYYCAARTYSYVGRYKFDYWGQGTQVTVSS	high polyreactivity
QVQLVESGGGLVQAGGSLRLSCAASGNTFVPYVMGWYRQAPGKERELVAAISRRGGSTRYADSVKGRFTISRDNAKNTVYLQMNSLNPEDTAVYYCAADGYVFALQRSRGVDFGYEYWGQGTQVTVSS	high polyreactivity
QVQLVESGGGLVQAGGSLSLSCAASGGTFTFYAMGWYRQAPGKERELVATINWSGGSTYYADSVKGRFTISRDNAKNTVYIQMNCLKPEDSAVYYCNAAWAYKSVEYWGQGTQVTVSS	low polyreactivity
QVQLVESGGGLVQAGGSLRLSCAASGRTFTSNAMGWYRQAPGKERELVAAITRGGSTYYADSVKGRFTISRDNAKNTVYLQMNSLKPEDTAVYYCNAGIYFRRKRYDYWGQGTQVTVSS	high polyreactivity
QVQLVESGGGLVQAGGRLRLSCAASGLIFYDNMGWYRQPPGKERELVAAITWSGGSTYYADSVKGRFTISRDNAKNTVYLQMNSLKPEDTAVSYCNADLDSGYGSYDYWGQGTQVTVSS	low polyreactivity
QVQLVESGGGLVQAGGSLRLSCAASGSIFQYNVKGWYIQAPGTERELVAAITSGGSTYYADSVKGRFTISRDNAKNTVYLQMNSLKPEDTAVYYCARDIRRKGFRYDYWGQGTQVTVSS	high polyreactivity
QVHLVESGGGLVQAGGSLRLSCAASGSTFTYYAMGWYRQAPGKERELVAAITGRGGRTYYADSVKGRFTISRDNAKNTVYLQMNSLKPEDTAVYYCARYPSSDTYWTKYDYWGQGTQVTVSS	high polyreactivity
QVQLVESGGGLVQAGGSLRLSCAASGITFHSYAMGWYRQAPGKERELVAGISSGGSTNYADSVKGRFTISRDNAKNTVYLQMNSLKPEDTAVYYCNADTPFYEYDYWGQGTQVTVSS	low polyreactivity
QVQLVESGGGLVQAGGSLRLSCAASGSIFYGYVMGCYTQAPGKERELVAAISGGGSTNYADSVKGRFTISRDNAKNTVYLQMNSLKPEDTAVYYCNTEDWAVGSPEVEYEYDYWGQGTQVTVSS	low polyreactivity
QVQLVESGGGLVQAGGSLRLSCAASGRIFLTNAMGSYRQAPGKERELVAAIRFSGGRTYYADSVKGRFTISRDNAKNTVYLQMNSLKPEDNAVYYCAADPPRTRYRNARFDYWGQGTQVTVSS	high polyreactivity
QVHLVESGGGLVQAGGSLRLSCAASGFTFRGYAMGWYRQAPGTERELVAAVSGSGGRTHYADSVKGRFTISRDNAKNTVYLQMNSLKPEDTAVYYCNARGRASATGRRGRPDPFGYWGQGTQVTVSS	high polyreactivity
QVQLVESGGGLVQAGGSLRLICAASGSTFSSYAMGLYIQAPGKEREFVAAINTDGGSTYYADSVKGRFTISRDNAKNTVYLQMNSLKPEDTAVYYCAADDISLAAHFDSWGQGTQVTVSS	low polyreactivity
QVQLVESGGGLVQAGGSLRLSCAASGSTFRFYAMGSYRQAPGKERELVASISRSGGSTYYADSVKGRFTISRDNAKNTVYLQMNSLKPEDTAVYYCAARILYHMDWGQGTQVTVSS	high polyreactivity
QVQLVESGGGLVQAGGSLRLICAASRRTYYSNAMGWYRQAPGKERELVAASTSTDDSTYYADSVKGRFTISRDNAKNTVYLQMNSLKPEDTAVYYCNTDGLIAIRGLWWVEYDYWGQGTQVTVSS	low polyreactivity
QVQLVESGGGLVQAGGSLRLSCAASGITFLSNAMGWYRQAPGKERELDAAISRGGGTTYYADSVKGRFTISRDIAKNTVYLLMNCLKPEDTAGSYCGTESTHTRRYWYEYWGLGTQVTVSS	high polyreactivity
QVQLVESGGGLVQAGRSLRLSCAASGSTFKYNAMGWYRQAPGKERELVASISRSGGSTYYADSVKGRFTISRDNAKNTVYLQMNSLKPEDTAGYYCNVRRFVHYEYWGQGSQVTVSS	high polyreactivity
QVQLVESGGGLVQAGGSLRLSCAASGSIFRYYVMGWYRHAPGKERELVAAISGGSTYYADSVKGRFTISRDNAKNTVYLQMNSLKPEDTAVYYCAARGKRRSGGENYAYGYWGQGTQVTVSS	high polyreactivity
QVQLVESGGGLVQAGGSLRLICAASGGIFATYAMGWYRQAPGKEMELVAAITKRGGSTYYADSVKGRFTISRDNAKNTVYLQMNSLTPEDTAVYYCAAKGYRWFRLGGYYFKFDYWGQGTQVTVSS	high polyreactivity
QDQLVESGGGLVQAGGSLRLICAASGRTFWAYAMGWYRQAPGKERELVAAISVSGGRTYYADSVKGRFTISRDNAKNTVYLQMNSLKPEDTAVYYCNKRYLKSYEYYWGQGTHVTVSS	high polyreactivity
QVQLVESGGGLVQAGGSLRLSCAASGRTFGGNAMGWYRQAPGKERELVAAITGRGGSTYYADSVKGRFTISRDNAKNTVYLQMNSLKAEDTAVYYCAKQFKRGYGYDYWGQCTQVTVSS	low polyreactivity
QVQLVESGGGLVQAGGSLRLSCAASGSTFPPNAMGWYRQAPGKERELVAAISFSSGRTYYADSVKGRFTISRDNAKNTVYLQMNSLKPEDTAVYYCAADHGYWGQGTQVTVSS	low polyreactivity
QVQLVESGGCLVQAGGSLRLSCSASGSTITYYAMGWYRQAPGKERELVAAISGRGGRTDYADSVKGRFTISRDNAKNTVYLQMNSLKPEATAVYYCARAGRVQPGSEDDYWGQGTQVTVSS	high polyreactivity

Sequence	polyreactivity (PSR sort gate)
QVQLVESGGGLVQAGGSLRLSCAASGITFNRYVMGWYRQAPGKERELVAANSRTGGSTYYADSVKGRFTISRDTGKNTVYLQMNILKPEDTAVYYCAAATSPGIYDYWGQGTQVTVSS	high polyreactivity
QVQLVESGGGLVQAGGSLRLSCAASGSISSQNAMVSYRQAPGKERELVAAISWIGGSTYYADSVKGRFTISRDFAKNTVYLQMNSLKPEDTAVYYCAKDRARGFKYYYWGQGTQVTVSS	low polyreactivity
QVQLVESGGGLVQAGGSIRLSCAASGSTFLIKAMGWYRQAPGKERELDASINRRGTSTFYADSVKARFTISRDNAKNTVYLQMNSLKPDDTAVYYCNAYPGAAIRSTGRYDYWGQGTQVTVSS	low polyreactivity
QVQLVESGGGLVQAGGSLRLSCAASGSTFARYAMGWYRQAPGKEREFVAAISASGGRTYYADSVKGRFTISRDNAKNTVYLQMNSLKPEDTAVYYCAVRVYAKYFAKYDYWGQGTQVTVSS	high polyreactivity
QVQLVESGGGLVQSGGSLRLSCAASGIIFSRNAMGWYRQAPGKERELVAGITSSGGTTYYADSVKGRFTISRDNAKNTVYLQMNSLKPEDTAVYYCAAYSTQNYSYRRYYYWGQGTQVTVSS	high polyreactivity
QVQLVESGGGLVQAGGSLRLSCAASGRIFEVYDMGWYRQAPGKERELVAAISESDDNTYYADSVKGRFTISRDNAKNTVYLQMNSLKPEDTAVYYCNADVPGDTGWWGFDYWGQGTQVTVSS	low polyreactivity
QVQLVESVGGLVQAGGSLRISCAASGSTFPWYAMGWYRQAPGKERELVASITSGTTTNYADSVKGRFTISRDNAKNTVYLQRNSLKPEDTADYYCAASWVYQYDYWGQGTQVSVSS	low polyreactivity
QVQLVESGGGLVQAGGSLRLSCAASGRTFRYYAMGWYRQAPGKERELVAAISWDGARSYYADSVKGRFTISRDNAKNTVYLQMNSLKPEDTAVYYCAADFPGGTDRYYPMDYWGQGTQVTVSS	low polyreactivity
QVQLVESGGGLVQAGGSLRLSCAASGIIFYYYDMGWYRQAPGKERELVAAISWGAGDTYYADSVKGRFTISRDNAKNTVYLQMNSLKPEDTAVYYCAAEFSRSDYQEYDYWGQGTQVTVSS	low polyreactivity
QVQLVESGGGLVQAGGSLRLSCAASGSIFVLNAMGWYRQAPGKERELVAAITNVGSTYYADSVKGRFTISRDNAKNTVYLQMNSLKPEDTAVYYCVAKGHLYSGGYEYYYWGQGTQVTVSS	low polyreactivity
QVQLVESGGGLVQAGGSLRLSCAASGSTFVPNTMGWYRQAPGKDRELVAGITSGGSTYYADSVKGRFTISRDNAKNTVYLQMNSLKPEDTAVYYCAAGKHVTFSYEYRMDYWGQGSQVTVSS	low polyreactivity
QVQLVESGGGLVQAGGSLRLSCAASGFIFGPYAMGWYRPAPGKERELVASISNSGDSTYADSVKGRFTISRDTAKNTVYLQMNSLKPEDTAVYYCNADGFVGTPSVDYDYWGQGTQVTVSS	low polyreactivity
QVQLVESGGGLVQAGRSLRLSCAASGNTLRPNGMGWYRPAPGKERELVAAISSGGSTYYADSVKGRFTISRDNAKNTVYLQMNSLKPEDTAVYYCAAEYWYDYWGQGTQVTVSS	low polyreactivity
QVQLVESGGGLVQAGGSLRLSCASSGSTFDANAMGWYRQAPGKERELVAAITSNGGSTYYADSVKGRFTISRDNAKNTVYLQMNSLKPEDTAVYYCATEQHTVQDYDYWGQGTQVTVSS	low polyreactivity
QVQLVESGGGLVQAGGSLRLSCAASGSTFPVNTMGWYRQAPGKERELVAAISWSGGRTYYADSVKGRFTISRDNAKNTVYLQMNSLKPEDTAVYYCAAEWEGTYTTVPDEFNYWGQGTQVTVSS	high polyreactivity
QVQLVESGGGLVQAGGSLRLSCAASGITFYYNAMGWYRQAPGKERELVATINDSDGSTYADSVKGRFTISRDNAKNTVYLQMNSLKPEDTAVYYCNAQTRAGYYFGYGYWGQGTQVTVSS	low polyreactivity
QVQLVESGGGLVQAGGSLRLSCAASGIIFAVYTMGWYRQARGKERELVAALSSGGSTYYADSVQGRFTISRDNAKNTVYLQMNSLKPEDTAVYYCNAQYFWLWLTYDFDYWGQGTQVTVSS	high polyreactivity
QVQLVESGGGLVQAGGSLRLSCAASGSIFYSYAMGWYRQAPGKERELVADITITGSTYYADSVKGRFTISRDNAKNTVYLQMNSLKPDDTAVYYCNAVLAPGGYDYWGQGTQVTVSS	low polyreactivity
QVQLVESGGGLVQAGGSLRLSCAASGNTFGQYTMGWYRQAPGKERELVAAISWDDSSTNYADSVKGRFTISRDNAKNTVYLQMNSLIPEDTAVYYCAKETELGTQYPYEYDYWGQGTQVTVSS	low polyreactivity
QVQLVESGGGLVQAGGSLRLSCAASGYTFVYYAMGWYRQAPGKERELVAAITSGGRTNYADSVKGRFTISRDNAKNTVYLQMNSLKPEDTAVYYCARLDYRSVRYGLRGQGTQVTVSS	low polyreactivity
QVQLVESGGGLVQAGGSLRLSCAASGYIFGSYVMGWYRQAPGKERELVAAITRIGASTYFADSVKGRFTISRDNAKNTVYLQMNSLKPDDTAVFYCATDQGGYYENDYWGQGTQVTVSS	low polyreactivity
